Results from patent US12295987B2, “Method of using a GIP/GLP1 co-agonist for diabetes” (Eli Lilly and Company, priority 2018, dated 2025).
Numbered stars: 1 amine (or outer) side, 2 acyl side, 3 side chain; on linkers, the order of the positions; unused ones are H or OH. Square brackets hold non-standard residues; d marks the D form. Side chains are listed from the residue outwards. Ends that are not written are not given here. * marks the point of attachment. C20 diacid = O=C(O)CCCCCCCCCCCCCCCCCCC(=O)*; γGlu = O=C(O)[C@H](CCC(=O)[*:2])N[*:1]; αMeL = CC(C)C[C@](C)(N)C(=O)O; αMeK = C[C@](N)(CCCCN)C(=O)O; AEEA = NCCOCCOCC(=O)O; Aib = CC(C)(N)C(=O)O

Molecular target: T1, human gastric inhibitory peptide receptor (hGIPR) (Homo sapiens, UniProt P48546)
T1 construct: expressed in transfected cells; host or cells: HEK293
T1 sequence (P48546 22-466): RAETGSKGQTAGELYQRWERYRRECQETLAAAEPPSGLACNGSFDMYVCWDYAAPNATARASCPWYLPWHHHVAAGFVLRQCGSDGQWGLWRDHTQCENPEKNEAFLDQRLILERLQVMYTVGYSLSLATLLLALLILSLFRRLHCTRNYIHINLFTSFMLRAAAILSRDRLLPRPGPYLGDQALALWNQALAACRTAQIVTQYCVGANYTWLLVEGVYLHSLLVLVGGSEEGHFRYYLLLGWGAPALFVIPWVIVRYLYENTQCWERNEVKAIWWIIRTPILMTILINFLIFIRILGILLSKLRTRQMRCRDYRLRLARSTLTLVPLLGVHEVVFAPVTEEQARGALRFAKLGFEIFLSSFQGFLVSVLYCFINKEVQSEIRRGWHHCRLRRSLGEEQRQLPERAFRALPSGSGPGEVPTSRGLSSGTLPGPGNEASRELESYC
Test: cAMP pharmacological functional assay in presence of 0.1% casein, hGIPR
Type: cell-based
Settings: ratio of hGIPR to hGLP1R cAMP EC50 ratios

Substance	[hGIPR/hGLP1R] EC50 Ratio
Y-Aib-EGTFTSDY-aMeS-ILLDKK((2-[2-(2-Amino-ethoxy)-ethoxy]-acetyl)2-(γGlu)-CO—(CH2)18—CO2H)AQ-Aib-AFIEYLIEGGPSSGAPPPS-NH2 (YXEGTFTSDYXILLDKKAQXAFIEYLIEGGPSSGAPPPS; Aib, αMeS, lipidated Lys, C-terminal amide; (2)..(2) Xaa at position 2 is Aib; (11)..(11) Xaa at position 11 is alpha-methyl-Ser; MOD_RES (17)..(17) Lys at position 17 is chemically modified by conjugation of the epsilon-amino group of the Lys side chain with (2-[2-(2-amino-ethoxy)-ethoxy]-acetyl)2-(gamma-Glu)-CO-(CH2)18- CO2H; (20)..(20) Xaa at position 20 is Aib; MOD_RES (39)..(39) Ser at position 39 is amidated) [Peptide 68]	4.72
Y-Aib-EGTFTSDYSI-αMeL-LD-Aib-K((2-[2-(2-Amino-ethoxy)-ethoxy]-acetyl)2-(γGlu)-CO—(CH2)18—CO2H)AQ-Aib-AFIEYLIEGGPSSGAPPPS-NH2 (YXEGTFTSDYSIXLDXKAQXAFIEYLIEGGPSSGAPPPS; Aib, αMeL, lipidated Lys, C-terminal amide; (2)..(2) Xaa at position 2 is Aib; (13)..(13) Xaa at position 13 is alpha-methyl-Leu; (16)..(16) Xaa at position 16 is Aib; MOD_RES (17)..(17) Lys at position 17 is chemically modified by conjugation of the epsilon-amino group of the Lys side chain with (2-[2-(2-amino-ethoxy)-ethoxy]-acetyl)2-(gamma-Glu)-CO-(CH2)18- CO2H; (20)..(20) Xaa at position 20 is Aib; MOD_RES (39)..(39) Ser at position 39) [Peptide 60]	4.47
Y-Aib-EGTFTSDYSI-αMeL-LDEK((2-[2-(2-Amino-ethoxy)-ethoxy]-acetyl)2-(γGlu)-CO—(CH2)18—CO2H)AQ-Aib-AFIEYLIEGG-NH2 (YXEGTFTSDYSIXLDEKAQXAFIEYLIEGG; Aib, αMeL; K lipidated C20 diacid-γGlu-AEEA2; C-terminal amide; (2)..(2) Xaa at position 2 is Aib; (13)..(13) Xaa at position 13 is alpha-methyl-Leu; MOD_RES (17)..(17) Lys at position 17 is chemically modified by conjugation of the epsilon-amino group of the Lys side chain with (2-[2-(2-amino-ethoxy)-ethoxy]-acetyl)2-(gamma-Glu)-CO-(CH2)18- CO2H; (20)..(20) Xaa at position 20 is Aib; MOD_RES (30)..(30) Gly at position 30 is amidated) [Peptide 63]	4.09
Y-Aib-EGTFTSDYSI-αMeL-LDEK((2-[2-(2-Amino-ethoxy)-ethoxy]-acetyl)2-(γGlu)-CO—(CH2)18—CO2H)AQ-Aib-AFIEYLLEGGPSSGAPPPS-NH2 (YXEGTFTSDYSIXLDEKAQXAFIEYLLEGGPSSGAPPPS; Aib, αMeL, lipidated Lys, C-terminal amide; (2)..(2) Xaa at position 2 is Aib; (13)..(13) Xaa at position 13 is alpha-methyl-Leu; MOD_RES (17)..(17) Lys at position 17 is chemically modified by conjugation of the epsilon-amino group of the Lys side chain with (2-[2-(2-amino-ethoxy)-ethoxy]-acetyl)2-(gamma-Glu)-CO-(CH2)18- CO2H; (20)..(20) Xaa at position 20 is Aib; MOD_RES (39)..(39) Ser at position 39 is amidated) [Peptide 66]	7.41
Y-Aib-EGTFTSDYSI-αMeL-LDEK((2-[2-(2-Amino-ethoxy)-ethoxy]-acetyl)2-(γGlu)-CO—(CH2)18—CO2H)AQ-αMeK-AFIEYLLE-Aib-GPSSGAPPPS-NH2 (Y[Aib]EGTFTSDYSI[αMeL]LDEK([AEEA-AEEA-γGlu-C20 diacid])AQ[αMeK]AFIEYLLE[Aib]GPSSGAPPPS-NH2; N-terminus assumed; SMILES CC[C@H](C)[C@H](NC(=O)[C@H](Cc1ccccc1)NC(=O)[C@H](C)NC(=O)[C@](C)(CCCCN)NC(=O)[C@H](CCC(N)=O)NC(=O)[C@H](C)NC(=O)[C@H](CCCCNC(=O)COCCOCCNC(=O)COCCOCCNC(=O)CC[C@H](NC(=O)CCCCCCCCCCCCCCCCCCC(=O)O)C(=O)O)NC(=O)[C@H](CCC(=O)O)NC(=O)[C@H](CC(=O)O)NC(=O)[C@H](CC(C)C)NC(=O)[C@](C)(CC(C)C)NC(=O)[C@@H](NC(=O)[C@H](CO)NC(=O)[C@H](Cc1ccc(O)cc1)NC(=O)[C@H](CC(=O)O)NC(=O)[C@H](CO)NC(=O)[C@@H](NC(=O)[C@H](Cc1ccccc1)NC(=O)[C@@H](NC(=O)CNC(=O)[C@H](CCC(=O)O)NC(=O)C(C)(C)NC(=O)[C@@H](N)Cc1ccc(O)cc1)[C@@H](C)O)[C@@H](C)O)[C@@H](C)CC)C(=O)N[C@@H](CCC(=O)O)C(=O)N[C@@H](Cc1ccc(O)cc1)C(=O)N[C@@H](CC(C)C)C(=O)N[C@@H](CC(C)C)C(=O)N[C@@H](CCC(=O)O)C(=O)NC(C)(C)C(=O)NCC(=O)N1CCC[C@H]1C(=O)N[C@@H](CO)C(=O)N[C@@H](CO)C(=O)NCC(=O)N[C@@H](C)C(=O)N1CCC[C@H]1C(=O)N1CCC[C@H]1C(=O)N1CCC[C@H]1C(=O)N[C@@H](CO)C(N)=O) [Peptide 22]	6.41
Y-Aib-EGTFTSDYSI-αMeL-LDEK((2-[2-(2-Amino-ethoxy)-ethoxy]-acetyl)2-(γGlu)-CO—(CH2)18—CO2H)AQ-αMeK-AFIEYLLEGGPSSGAPPPS-NH2 (Y[Aib]EGTFTSDYSI[αMeL]LDEK([AEEA-AEEA-γGlu-C20 diacid])AQ[αMeK]AFIEYLLEGGPSSGAPPPS-NH2; N-terminus assumed; SMILES CC[C@H](C)[C@H](NC(=O)[C@H](Cc1ccccc1)NC(=O)[C@H](C)NC(=O)[C@](C)(CCCCN)NC(=O)[C@H](CCC(N)=O)NC(=O)[C@H](C)NC(=O)[C@H](CCCCNC(=O)COCCOCCNC(=O)COCCOCCNC(=O)CC[C@H](NC(=O)CCCCCCCCCCCCCCCCCCC(=O)O)C(=O)O)NC(=O)[C@H](CCC(=O)O)NC(=O)[C@H](CC(=O)O)NC(=O)[C@H](CC(C)C)NC(=O)[C@](C)(CC(C)C)NC(=O)[C@@H](NC(=O)[C@H](CO)NC(=O)[C@H](Cc1ccc(O)cc1)NC(=O)[C@H](CC(=O)O)NC(=O)[C@H](CO)NC(=O)[C@@H](NC(=O)[C@H](Cc1ccccc1)NC(=O)[C@@H](NC(=O)CNC(=O)[C@H](CCC(=O)O)NC(=O)C(C)(C)NC(=O)[C@@H](N)Cc1ccc(O)cc1)[C@@H](C)O)[C@@H](C)O)[C@@H](C)CC)C(=O)N[C@@H](CCC(=O)O)C(=O)N[C@@H](Cc1ccc(O)cc1)C(=O)N[C@@H](CC(C)C)C(=O)N[C@@H](CC(C)C)C(=O)N[C@@H](CCC(=O)O)C(=O)NCC(=O)NCC(=O)N1CCC[C@H]1C(=O)N[C@@H](CO)C(=O)N[C@@H](CO)C(=O)NCC(=O)N[C@@H](C)C(=O)N1CCC[C@H]1C(=O)N1CCC[C@H]1C(=O)N1CCC[C@H]1C(=O)N[C@@H](CO)C(N)=O) [Peptide 21]	4.85
Y-Aib-EGTFTSDYSI-αMeL-LDKIAQ-Aib-AFIEYLIK((2-[2-(2-Amino-ethoxy)-ethoxy]-acetyl)2-(γGlu)-CO—(CH2)18—CO2H)GG-NH2 (YXEGTFTSDYSIXLDKIAQXAFIEYLIKGG; Aib, αMeL; K lipidated C20 diacid-γGlu-AEEA2; C-terminal amide; (2)..(2) Xaa at position 2 is Aib; (13)..(13) Xaa at position 13 is alpha-methyl-Leu; (20)..(20) Xaa at position 20 is Aib; MOD_RES (28)..(28) Lys at position 28 is chemically modified by conjugation of the epsilon-amino group of the Lys side chain with (2-[2-(2-amino-ethoxy)-ethoxy]-acetyl)2-(gamma-Glu)-CO-(CH2)18- CO2H; MOD_RES (30)..(30) Gly at position 30 is amidated) [Peptide 97]	3.56
Y-Aib-EGTFTSDYSI-αMeL-LDKK((2-[2-(2-Amino-ethoxy)-ethoxy]-acetyl)2-(γGlu)-CO—(CH2)18—CO2H)AQ-Aib-AFIEYLIEGG-NH2 (YXEGTFTSDYSIXLDKKAQXAFIEYLIEGG; Aib, αMeL; K lipidated C20 diacid-γGlu-AEEA2; C-terminal amide; (2)..(2) Xaa at position 2 is Aib; (13)..(13) Xaa at position 13 is alpha-methyl-Leu; MOD_RES (17)..(17) Lys at position 17 is chemically modified by conjugation of the epsilon-amino group of the Lys side chain with (2-[2-(2-amino-ethoxy)-ethoxy]-acetyl)2-(gamma-Glu)-CO-(CH2)18- CO2H; (20)..(20) Xaa at position 20 is Aib; MOD_RES (30)..(30) Gly at position 30 is amidated) [Peptide 62]	5.03
